Laboratory results from patent US12653899B2, “Multi-targeted, tunable, sustained delivery of payloads to charged avascular tissues” (Massachusetts Institute of Technology, priority 2019, dated 2026).
“Also recorded” adds a separate entry of the source.

Tests used:
[1] = tested on: human ankle cartilage explants; experiment: Quantitative uptake of fusion proteins in human ankle cartilage (uptake ratio); assay type: in vitro ADME; conditions: 1 μM in PBS + 1% BSA
Protocol: Cartilage explants were incubated in 250 μL of 1 μM solutions of different fusion proteins dissolved in 1×PBS+1% BSA for either 36 hours (FIG. 4A) or for 108 hours (FIG. 4B) (4.5 days). A group with free +9 GFP dissolved in 1×PBS+1% BSA (1 μM concentration) was included as a control for each of these two time points. An additional untreated control was included in these experiments. Cartilage explants were incubated in plain 1×PBS+1% BSA to account for and to correct for any autofluorescence effects. At the end of the incubation in the 1×PBS+1% BSA: The explants were transferred to a 10×PBS+1% BSA bath for 48 hours. The purpose of this was to desorb the GFPs taken up by the explants. The amount of GFPs left behind in the […] bath was quantified through fluorescence measurements. The desorption step in 10×PBS+1% BSA was followed by a second desorption step using fresh 10×PBS+1% BSA just to ensure any GFPs left in the explant after the 1st desorption come out. At the end of each desorption step, the fluorescence of the 10×PBS+1% BSA bath was measured. After the 2nd desorption step, the explants were digested in Proteinase K and their fluorescence was measured. The uptake ratio for the 36 hour and 108 hour experiments was calculated as (FIG. 4C): […]
Cartilage explants that had been equilibrated in culture medium post-harvest were transferred to sterile PBS and allowed to equilibrate for 1 hour before the start of the experiments. Sterile PBS solutions containing 1% bovine serum albumin (BSA) were prepared. Following this, 1 μM solutions of (+9GFP), (+9GFP)-(GGGGS)4-(IGF-1) (SEQ ID NO: 7), (+9GFP)-(EAAAK)3-(IGF-1) (SEQ ID NO: 8) and (+9GFP)-(GGGGS)3-(IGF-1) (SEQ ID NO: 9) were prepared. The BSA was included in the PBS to minimize loss of GFPs in the solution caused by non-specific binding to the plasticware. […] In contrast, use of polypropylene with 1% BSA enabled complete recovery of fluorescence.
At the end of the incubation period, cartilage explants were washed with PBS and transferred to a solution of 10×PBS+1% BSA for desorption. At the same time, the fluorescence of the absorption bath was measured using a plate reader (Synergy H1, Biotek Instruments Inc.) (excitation: 485 nm, emission: 528 nm). […] At the end of the desorption in 10×PBS+1% BSA, cartilage explants were weighed, and the fluorescence of the desorption bath was measured. This fluorescence measurement was used with a standard curve and the explant wet weights to calculate the concentration of GFP inside cartilage explants (mol/mg wet weight). The uptake ratio was calculated as the ratio of GFP concentration inside cartilage (mol/mg wet weight) to the final absorption bath concentration (mol/mL).

[2] = tested on: human ankle cartilage explants; experiment: Cumulative sGAG loss and final explant sGAG content (DMMB), human ankle cartilage dose response; assay type: cell-based; conditions: continuous free IGF-1; any of the three time points
Protocol: Since each fusion protein had one IGF-1 domain, equivalent doses (39.2 nM) of these were tested. In addition to this, 500 nM, 1 μM and 2 μM doses of fusion proteins were also tested. In all cases, only a single dose of the fusion proteins was added at the start of the experiment, and media changes were carried out without fusion proteins once every 2 to 3 days thereafter. In contrast, continuous doses of free IGF-1 were used for the positive control. An untreated control group was also included in the experiments. Experiments were terminated at 3-day, 7-day and 15-day time points. Outcome measures included the biosynthesis rate of sulfated glycosaminoglycans (sGAG), explant metabolic rate, sGAG loss to the culture medium and the explant sGAG content at the end of the experiment.
The metabolic rate of cartilage explants was measured using the Alamar Blue assay (ThermoFisher). […] At the end of the incubation period, the absorbance of the medium at 570 nm and 600 nm was measured using a microplate reader (Synergy H1 Hybrid Multi-Mode Microplate Reader, BioTek). These readings were used to calculate the percentage reduction of Alamar Blue, which is directly proportional to the explant metabolic rate. […] Following this, the weight-normalized readings for the treatment groups were normalized by the weight-normalized mean value for the untreated controls. […]

[3] = tested on: human ankle cartilage explants treated with IL-1β; experiment: IL-1β cytokine challenge model, sGAG biosynthesis rate in human ankle cartilage explants; assay type: cell-based; conditions: continuous 39.2 nM IGF-1; 10 ng/ml mouse IL-1β; FIG. 20

| Substance | Uptake ratio (Mean) ([1]; 36 hr) | Uptake ratio (Mean) ([1]; 108 hr) | final explant GAG content or cumulative GAG loss percent compared to the untreated control [2] | rescue of the biosynthesis loss caused by IL-1 [3] |
| --- | --- | --- | --- | --- |
| (+9GFP)-(GGGGS)4-(IGF-1): fusion protein of +9 GFP and human IGF-1 with flexible (GGGGS)4 linker, SEQ ID NO: 7 | 12.7 | 18.3 |  |  |
| IGF-1: free recombinant human IGF-1 (PeproTech), pro-anabolic growth factor used as the positive control |  |  | did not have any change | rescued; also recorded: could rescue |
